Results from patent USRE50282 (KAGOSHIMA UNIVERSITY, dated 2025).
Bridges are numbered along the chain shown (N, C = ends). Primed or numbered codes have the meaning given here. Where no end group is shown, it is not given here. The star is where a group is joined. DSS = disuccinimidyl suberate, reactive NHS group, O=C(CCCCCCC(=O)*)ON1C(=O)CCC1=O; DSG = disuccinimidyl glutarate, reactive NHS group, O=C(CCCC(=O)*)ON1C(=O)CCC1=O; Biotin = O=C1N[C@H]2[C@H](CS[C@H]2CCCCC(=O)*)N1; PEG4′ = not defined here

How the values were obtained:
human IgG Fc = target: T1, human IgG Fc (human, UniProt P01857-1 108-330 = IgG part); assay: X-ray crystallography of the Fc/IgG-binding peptide conjugate
T1 construct: domain: Fc; also called human IgG1 Fc

human serum albumin = target: T2, human serum albumin (human, UniProt P02768 25-609); assay: covalent labeling reaction, SDS-PAGE and Western blotting with SA-conjugated HRP
T2 construct: also called HSA; HAS

bovine serum albumin = target: T3, bovine serum albumin (bovine, UniProt P02769 25-607); assay: ELISA, BSA used as blocking agent, biotinylated peptide detected with SA-HRP
T3 construct: also called BSA
T3 sequence (P02769 25-607 limits assumed): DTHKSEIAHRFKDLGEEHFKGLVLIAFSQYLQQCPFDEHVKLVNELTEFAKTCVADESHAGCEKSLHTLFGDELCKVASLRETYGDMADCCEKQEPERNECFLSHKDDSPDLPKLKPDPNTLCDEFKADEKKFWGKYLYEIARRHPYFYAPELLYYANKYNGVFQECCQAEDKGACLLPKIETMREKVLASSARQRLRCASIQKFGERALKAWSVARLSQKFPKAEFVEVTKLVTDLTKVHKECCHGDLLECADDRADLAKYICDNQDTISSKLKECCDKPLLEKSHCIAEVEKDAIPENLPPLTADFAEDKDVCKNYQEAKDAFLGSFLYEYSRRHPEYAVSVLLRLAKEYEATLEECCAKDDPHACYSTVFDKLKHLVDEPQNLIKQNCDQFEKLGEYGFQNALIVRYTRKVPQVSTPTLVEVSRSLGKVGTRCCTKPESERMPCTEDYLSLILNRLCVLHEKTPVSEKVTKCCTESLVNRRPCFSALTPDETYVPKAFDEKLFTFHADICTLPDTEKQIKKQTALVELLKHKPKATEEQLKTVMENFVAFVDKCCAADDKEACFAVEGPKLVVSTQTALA

B1: cyclic homocysteine peptide G(HC)DCAYHRGELVWCT(HC)H-NH2 (peptide)
peptide: GXDCAYHRGELVWCTXH-NH2
modifications: disulfide 4-14, 2-16; not fully specified (residues 2, 16); printed as G(HC)DCAYHRGELVWCT(HC)H-NH2
- binding result (human IgG Fc): binds

B2: N-terminally biotin-PEG4-added IgG-binding peptide (Type I(R8K)) modified with DSG (peptide)
peptide: {Biotin-PEG4′}-GDDCAYHK(DSG)GELVWCTFH-NH2
modifications: disulfide 4-14
notes: also called labeled reagent peptide
- binding result (human serum albumin): no binding

B3: N-terminally biotin-PEG4-added IgG-binding peptide (Type I(R8K)) modified with DSS (peptide)
peptide: {Biotin-PEG4′}-GDDCAYHK(DSS)GELVWCTFH-NH2
modifications: disulfide 4-14
notes: also called DSS R8K
- binding result (bovine serum albumin): no binding (tested: molar ratio up to 10)
- binding result (human serum albumin): no binding
